From patent US20230287120A1 (ALLOGENE THERAPEUTICS, published 2023)
Blank lines part the entries; values can stand above or below the binder they belong to.

Columns and labels:
[1] = molecular target: T1, Flag tagged recombinant DLL3 (Adipogen) (Homo sapiens (Human), UniProt Q9NYJ7 27-492); experiment: flow cytometry, primary T cells with the CAR, Flag tagged recombinant DLL3, PE anti-Flag
T1 construct: Bought reagent; also called Flag-DLL3
T1 sequence: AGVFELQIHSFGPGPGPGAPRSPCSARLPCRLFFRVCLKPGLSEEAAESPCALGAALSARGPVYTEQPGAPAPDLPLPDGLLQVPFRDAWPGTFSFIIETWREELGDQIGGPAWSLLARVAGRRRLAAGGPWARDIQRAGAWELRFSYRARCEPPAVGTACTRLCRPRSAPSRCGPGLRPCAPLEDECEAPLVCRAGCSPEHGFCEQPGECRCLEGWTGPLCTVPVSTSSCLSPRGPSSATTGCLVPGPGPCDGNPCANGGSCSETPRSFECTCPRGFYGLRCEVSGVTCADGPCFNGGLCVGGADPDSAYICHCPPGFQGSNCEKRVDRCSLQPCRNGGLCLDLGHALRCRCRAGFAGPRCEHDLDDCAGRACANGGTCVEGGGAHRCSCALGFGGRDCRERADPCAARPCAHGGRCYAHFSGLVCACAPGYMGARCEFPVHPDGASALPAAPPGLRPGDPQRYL

[2] = molecular target: T1, Flag tagged recombinant DLL3 (Adipogen); experiment: flow cytometry, percent of T cells that recognise recombinant DLL3, Donor 116
Description: (§1) To determine the percentage of T cells that were successfully transduced with DLL3 CAR, T cells were first incubated with 1 ug/ml Flag tagged recombinant DLL3 (Adipogen) in PBS+1% BSA for 20 minutes at 4 C.

[3] = molecular target: T1, Flag tagged recombinant DLL3 (Adipogen); experiment: flow cytometry, percent of T cells that recognise recombinant DLL3, Donor 419
Description: as §1

[4] = molecular target: T1, Flag tagged recombinant DLL3 (Adipogen); experiment: flow cytometry, primary T cells with the CAR, 1 ug/ml Flag tagged recombinant DLL3, PE anti-Flag
Description: as §1

[5] = molecular target: T2, full length human DLL3 with N-terminal HA tag, expressed on CHO cells (human, UniProt Q9NYJ7 27-618); experiment: flow cytometry on CHO cells with full length and truncated human DLL3; column Binds to DLL3 Domain
T2 construct: also called Human DLL3 complete ECD
T2 sequence: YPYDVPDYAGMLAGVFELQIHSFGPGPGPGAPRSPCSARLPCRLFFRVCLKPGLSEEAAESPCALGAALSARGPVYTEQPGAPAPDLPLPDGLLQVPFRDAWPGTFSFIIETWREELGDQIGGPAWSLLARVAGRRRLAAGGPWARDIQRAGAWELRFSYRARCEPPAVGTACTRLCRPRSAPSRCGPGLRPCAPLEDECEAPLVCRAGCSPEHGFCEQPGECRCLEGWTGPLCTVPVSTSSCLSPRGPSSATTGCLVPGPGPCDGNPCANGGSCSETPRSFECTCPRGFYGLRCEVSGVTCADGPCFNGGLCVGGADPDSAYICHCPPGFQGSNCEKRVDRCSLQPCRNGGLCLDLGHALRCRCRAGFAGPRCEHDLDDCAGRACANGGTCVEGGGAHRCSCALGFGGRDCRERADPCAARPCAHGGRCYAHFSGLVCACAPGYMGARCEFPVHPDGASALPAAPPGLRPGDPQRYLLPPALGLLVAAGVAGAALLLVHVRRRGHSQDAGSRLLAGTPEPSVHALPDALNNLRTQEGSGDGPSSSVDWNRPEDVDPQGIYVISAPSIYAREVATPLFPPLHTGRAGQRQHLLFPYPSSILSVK
Description: The samples were analyzed by flow cytometry. […] Signals from the PE channel are shown on the x-axis and counts are shown on the y-axis.

B1: 2G1 RSR (other)
CAR: GGGGSCPYSNPSLCGGGGSQLQLQESGPGLVKPSETLSLTCTVSGGSISSSSYYWGWIRQPPGKGLEWIGSIYYSGNIYHNPSLKSRVSISVDTSKNQFSLRLSSVTAADTAVYYCAREIIVGATHFDYWGQGTLVTVSSGGGGSGGGGSGGGGSGGGGSAIQMTQSPSSLSASVGDRVTITCRASQGIRNDLGWYQQKPGKAPELLIYAASSLQSGVPSRFSGSGSGTDFTLTISSLQPEDFATYYCLQDYNYPLTFGPGTKVDIKGGGGSCPYSNPSLCGGGGSTTTPAPRPPTPAPTIASQPLSLRPEACRPAAGGAVHTRGLDFACDIYIWAPLAGTCGVLLLSLVITKRGRKKLLYIFKQPFMRPVQTTQEEDGCSCRFPEEEEGGCELRVKFSRSADAPAYQQGQNQLYNELNLGRREEYDVLDKRRGRDPEMGGKPRRKNPQEGLYNELQKDKMAEAYSEIGMKGERRRGKGHDGLYQGLSTATKDTYDALHMQALPPR
notes: member of group m44; also called 2G1-RSR anti-DLL3 CAR with safety switch, on primary T cells
- Rec-DLL3+ gate, percent of live CD3+ cells [1]: 60.7%

B2: 2G1 (other)
CAR: QLQLQESGPGLVKPSETLSLTCTVSGGSISSSSYYWGWIRQPPGKGLEWIGSIYYSGNIYHNPSLKSRVSISVDTSKNQFSLRLSSVTAADTAVYYCAREIIVGATHFDYWGQGTLVTVSSGGGGSGGGGSGGGGSGGGGSAIQMTQSPSSLSASVGDRVTITCRASQGIRNDLGWYQQKPGKAPELLIYAASSLQSGVPSRFSGSGSGTDFTLTISSLQPEDFATYYCLQDYNYPLTFGPGTKVDIKTTTPAPRPPTPAPTIASQPLSLRPEACRPAAGGAVHTRGLDFACDIYIWAPLAGTCGVLLLSLVITKRGRKKLLYIFKQPFMRPVQTTQEEDGCSCRFPEEEEGGCELRVKFSRSADAPAYQQGQNQLYNELNLGRREEYDVLDKRRGRDPEMGGKPRRKNPQEGLYNELQKDKMAEAYSEIGMKGERRRGKGHDGLYQGLSTATKDTYDALHMQALPPR
notes: also called anti-DLL3 CAR with 2G1 scFv, on primary T cells
- Transduction efficiency [2]: 66.9%
- Transduction efficiency [3]: 49.1%
- Rec-DLL3 gate, percent of live CD3+ cells [4]: 69.1%

B3: 3F2 (other)
CAR: QVQLQESGPGLVKPSGTLSLTCAVSGGSISSNNWWSWVRQPPGKGLEWIGDIHHSGSTNYKPSLKSRVTISVDKSKNQFSLNLISVTAADTAVYYCAREAGGYFDYWGQGILVTVSSGGGGSGGGGSGGGGSGGGGSDIQMTQSPSTLSASVGDRVTITCRASQSISSWLAWYQQKPGKAPKLLISKASSLESGVPSRFSGSGSGPEFTLTISSLQPADFATYYCQQYNSYSTFGQGTKLEIKTTTPAPRPPTPAPTIASQPLSLRPEACRPAAGGAVHTRGLDFACDIYIWAPLAGTCGVLLLSLVITKRGRKKLLYIFKQPFMRPVQTTQEEDGCSCRFPEEEEGGCELRVKFSRSADAPAYQQGQNQLYNELNLGRREEYDVLDKRRGRDPEMGGKPRRKNPQEGLYNELQKDKMAEAYSEIGMKGERRRGKGHDGLYQGLSTATKDTYDALHMQALPPR
notes: also called anti-DLL3 CAR with 3F2 scFv, on primary T cells
- Transduction efficiency [2]: 16.3%
- Transduction efficiency [3]: 12.2%
- Rec-DLL3 gate, percent of live CD3+ cells [4]: 58%

B5: 2G1 R2S (other)
CAR: GGGGSCPYSNPSLCGGGGSCPYSNPSLCGGGGSQLQLQESGPGLVKPSETLSLTCTVSGGSISSSSYYWGWIRQPPGKGLEWIGSIYYSGNIYHNPSLKSRVSISVDTSKNQFSLRLSSVTAADTAVYYCAREIIVGATHFDYWGQGTLVTVSSGGGGSGGGGSGGGGSGGGGSAIQMTQSPSSLSASVGDRVTITCRASQGIRNDLGWYQQKPGKAPELLIYAASSLQSGVPSRFSGSGSGTDFTLTISSLQPEDFATYYCLQDYNYPLTFGPGTKVDIKTTTPAPRPPTPAPTIASQPLSLRPEACRPAAGGAVHTRGLDFACDIYIWAPLAGTCGVLLLSLVITKRGRKKLLYIFKQPFMRPVQTTQEEDGCSCRFPEEEEGGCELRVKFSRSADAPAYQQGQNQLYNELNLGRREEYDVLDKRRGRDPEMGGKPRRKNPQEGLYNELQKDKMAEAYSEIGMKGERRRGKGHDGLYQGLSTATKDTYDALHMQALPPR
notes: member of group m44; also called 2G1-R2S anti-DLL3 CAR with safety switch, on primary T cells
- Rec-DLL3+ gate, percent of live CD3+ cells [1]: 66%

B6: anti-DLL3 antibody 16H7 (antibody, V domains shown)
VH: QVQLQQWGAGLLKPSETLSLTCAVFGGSFSGDYWSWIRQPPGKGLEWIGEINHSGITSFNPSLKSRVTISVDTSKNQFSLKLSSVTAADTAVYYCARGELGIPDNWGQGTLVTVSS
VL: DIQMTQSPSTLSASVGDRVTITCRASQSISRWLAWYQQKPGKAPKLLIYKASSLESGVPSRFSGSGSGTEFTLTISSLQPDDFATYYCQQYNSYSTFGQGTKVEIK
- binding result [5]: binds

B8: anti-DLL3 antibody 4F9 (antibody, V domains shown)
VH: QVQLQQWGAGLLKPSETLSLTCAVYGGSFSGYYWTWIRQPPGKGLEWIGEITHSGSTNYNPSLKSRVSISVDTSKNQFSLKLSSVTAADTAVYYCARGEYGSGSRFDYWGQGTLVTVSS
VL: AIQMTQSPSSLSASVGDRVAITCRASQGIRDDLGWYQQKPGKAPKLLIYAASSLQSGVPSRFSGSGSDTDFTLTISSLQPEDFATYYCLQDYDYPLTFGGGTKVEIK
- binding result [5]: binds

Other lines, results leading:

- binding result [5]: binds
B4: anti-DLL3 antibody 9H12-K (antibody, V domains shown)
VH: QVQLVQSGAEVKKPGASVKVSCKASGYTFTGYSIHWVRQAPGQGLEWMGWINPNSGGTFYAQKFQGRVTMTRDTSISTVYMELSRLRSDDTAVYYCARDGWGDYYYYGLDVWGQGTTVTVSL
VL: DIQMTQSPSSVSASVGDRVTITCRASQDISSWLAWYQQKPGKAPKLLIYTASSLQGGVPSRFSGSGSGTDFTLTISSLQPEDLATYSCQQANVFPYTFGQGTKLEIK

- binding result [5]: binds
B7: anti-DLL3 antibody 2C3 (antibody, V domains shown)
VH: QVQLQQWGGGLLKPSETLSLTCAVYGGSSSGNYWSWIRQPPGKRLEWIGEINHSGTTSYNPSLKSRVTISVDTSKNQFSLKLSSVTAADTAVYYCARGELGIADSWGQGTLVTVSS
VL: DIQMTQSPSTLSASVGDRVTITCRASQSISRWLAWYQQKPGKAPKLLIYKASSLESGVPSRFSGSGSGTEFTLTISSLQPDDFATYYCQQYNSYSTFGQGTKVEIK

- binding result [5]: binds
B9: anti-DLL3 antibody 4G9 (antibody, V domains shown)
VH: QVQLQQWGAGLLKPSETLSLTCAVYGGSFSGYYWSWIRQPPGKGLEWIGEITHSGSTNYNPSLKSRVSISVDTSKNQFSLKLSSVTAADTAVYYCARGEYGSGSRFDYWGQGTLVTVSS
VL: AIQMTQSPSSLSASVGDRVALTCRASQGIRDDLGWYQQKPGKAPKLLIYAASSLQSGVPSRFSGSGSDTDFTLTISSLQPEDFATYYCLQDYDYPLTFGGGTKVEIK

- Transduction efficiency [2]: 68.6%
- Transduction efficiency [3]: 43.3%
- Rec-DLL3 gate, percent of live CD3+ cells [4]: 59.1%
B10: 17A2 (other)
CAR: QVQLQESGPGLVKPSGTLSLTCVVFGDSISSSNWWSWVRQPPGKGLEWIGEVFHSGSTNYNPSLKSRVTISVDKSKNQFSLKLSSVTAADTAVYYCARAAVAGALDYWGQGTLVTVSSGGGGSGGGGSGGGGSGGGGSDIVMTQSPDSLAVSLGERATINCKSSQSVLYSSNNKNYLAWYQQKPGQPPNLLVYWASTRESGVPDRFSGAGSGTDFTLTISSLQAEDVAVYYCQQYYGTSWTFGQGTKVEIKTTTPAPRPPTPAPTIASQPLSLRPEACRPAAGGAVHTRGLDFACDIYIWAPLAGTCGVLLLSLVITKRGRKKLLYIFKQPFMRPVQTTQEEDGCSCRFPEEEEGGCELRVKFSRSADAPAYQQGQNQLYNELNLGRREEYDVLDKRRGRDPEMGGKPRRKNPQEGLYNELQKDKMAEAYSEIGMKGERRRGKGHDGLYQGLSTATKDTYDALHMQALPPR
notes: also called anti-DLL3 CAR with 17A2 scFv, on primary T cells

- binding result [5]: binds
B11: anti-DLL3 antibody 11H7 (antibody, V domains shown)
VH: QVQLQQWGAGLLKPSETLSLTCAVYGGSFSAYYWNWIRQPPGKGLEWIGEINHSGSTNYNPSLKSRVTISVDTSKNQFSLNLTSLTAADTAVYYCARGLDSSGWYPFDYWGQGTLVTVSS
VL: DIQMTQSPSSVSASVGDRVTITCRASQGISSWLAWYQQKPGKAPKLLIYAASSLQSGVPSRFSGSGSGTDFTLTISSLQPEDFATYYCQQADSFPFTFGPGTKVDIK
